For seven molecules, Kd and EC50 results are on record in patent US20230272086A1 (CHIA TAI TIANQING PHARMACEUTICAL GROUP, published 2023).

Changes are numbered by the printed parent chain.

First the molecules themselves.
T1: recombinant protein containing hST2 extracellular domain with mouse antibody heavy chain Fc tag (hST2-ECD-mFc) (human)
T1 construct: Used for SPR and for ELISA of chimeric and humanized antibodies; also called human ST2 antigen
T1 chain: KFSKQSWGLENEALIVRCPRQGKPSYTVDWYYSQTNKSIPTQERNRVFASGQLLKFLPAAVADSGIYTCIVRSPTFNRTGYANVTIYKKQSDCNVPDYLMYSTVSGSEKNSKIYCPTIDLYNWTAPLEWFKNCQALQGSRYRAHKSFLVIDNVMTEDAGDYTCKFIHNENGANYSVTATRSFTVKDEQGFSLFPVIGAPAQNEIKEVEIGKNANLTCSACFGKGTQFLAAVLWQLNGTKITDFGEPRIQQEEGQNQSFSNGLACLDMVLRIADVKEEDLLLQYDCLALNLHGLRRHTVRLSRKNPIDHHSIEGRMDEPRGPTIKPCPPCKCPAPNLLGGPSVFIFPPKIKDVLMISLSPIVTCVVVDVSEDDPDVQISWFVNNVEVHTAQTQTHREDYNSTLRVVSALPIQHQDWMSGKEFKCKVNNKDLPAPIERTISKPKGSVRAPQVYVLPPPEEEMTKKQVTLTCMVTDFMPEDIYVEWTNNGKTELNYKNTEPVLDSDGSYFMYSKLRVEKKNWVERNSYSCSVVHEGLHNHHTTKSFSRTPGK

T2: human ST2 (hST2, Interleukin-1 receptor-like 1 isoform A) on cells (human, UniProt Q01638 19-556)
T2 construct: the same id is used for hST2 naturally expressed on KU812 cells and on human CD4+ T cells; also called HEK293T-hST2-NFκB-Luciferase; KU812-NFκB-Luciferase
T2 sequence: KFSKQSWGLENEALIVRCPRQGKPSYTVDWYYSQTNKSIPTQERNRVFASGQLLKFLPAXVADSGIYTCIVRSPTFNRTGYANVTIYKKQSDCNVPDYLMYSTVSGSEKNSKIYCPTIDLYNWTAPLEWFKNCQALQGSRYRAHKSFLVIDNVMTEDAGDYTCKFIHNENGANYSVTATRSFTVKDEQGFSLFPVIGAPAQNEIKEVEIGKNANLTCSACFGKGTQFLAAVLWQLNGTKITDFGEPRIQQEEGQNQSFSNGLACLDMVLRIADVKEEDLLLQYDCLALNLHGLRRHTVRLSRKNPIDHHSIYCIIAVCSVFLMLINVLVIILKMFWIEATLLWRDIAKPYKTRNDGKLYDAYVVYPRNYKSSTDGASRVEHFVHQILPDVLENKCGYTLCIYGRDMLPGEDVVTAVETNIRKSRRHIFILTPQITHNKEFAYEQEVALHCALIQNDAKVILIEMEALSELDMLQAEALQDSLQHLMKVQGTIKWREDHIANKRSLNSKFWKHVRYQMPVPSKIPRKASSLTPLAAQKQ

B1: RG6149 (antibody Ab2 in CN104334582, prepared in-house) (antibody, human IgG2, kappa, V domains shown)
VH: EVQLVQSGAEVKKPGESLKISCKGSGYSFTNYWIGWVRQMPGKGLEWMGIIYPGNSDTRFSPSFQGQVTISADKSITTAYLQWSSLKASDTAMYYCARHGTSSDYYGLDVWGQGTTVTVSS
VL: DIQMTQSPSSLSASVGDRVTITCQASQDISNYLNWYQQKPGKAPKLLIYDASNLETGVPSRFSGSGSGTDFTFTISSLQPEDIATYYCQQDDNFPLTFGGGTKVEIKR
notes: Control anti-ST2 antibody
B2: Chimeric 31C8 (antibody, human IgG2, kappa, V domains shown)
VH: QVQLQQSGPELVRPGASVTLSCKASGYIFIDSEMHWVKQTPVHGLEWIGAIDPETGDTVYNQKFKGKATLTADKSSSTASMELSSLTSEDSAVYYCTGSTTDYYFAYWGQGTTLTVSS
VL: DIVMTQAAFSNPVTLGTSASISCRSSKSLLHSNGIIYLYWYLQKPGQSPQLLIYQMSNLASGVPDRFSSSGSGTDFTLRISRVEAEDVGVYYCAQNLELPFTFGSGTKLEIKR
notes: also called xi31C8
B3: Chimeric 3C6 (antibody, human IgG2, kappa, V domains shown)
VH: QVQLQQSGAEVVRPGASVTLSCKASDYTITDYEMHWVKQTPVHGLEWIGAIDPETGDTAYSQNFKGKATLTADESSSTAYMELSSLTSEDSAVYYCSRSATDYYFASWGQGTTLTVSS
VL: B2 VL with F9I, I21M, I36T, Q47H, R79K
notes: also called xi3C6
B4: Chimeric 26A1 (antibody, human IgG2, kappa, V domains shown)
VH: B2 VH with P9A, G26D, I30T, M34I, P41L, V59A, S80Y, D90G, T97S, Y103C
VL: B2 VL
notes: also called xi26A1
B5: Chimeric 8F4 (antibody, human IgG2, kappa, V domains shown)
VH: B2 VH with P9A, Y27H, I30T, S32Y, H35Q, I51F, V59A, S80Y, T97S, T113S
VL: B2 VL with I2V, A7T
notes: also called xi8F4
B6: Chimeric 7D1 (antibody, human IgG2, kappa, V domains shown)
VH: QVQLQQSGAELVRPGASVTLSCKASGYTFTDYEMHWVKQTPVHGLDWIGTIDPETGDTAYNQKFKGRATLTADKSSSTAYMELSSLTSEDSAVYYCTRYSYTNSPYGMDYWGQGTSVTVSS
VL: DVVMTQTPKFLLVSAGDRVTITCKASQSVSNDVAWYQQKPGQSPKLLIYYASNRYTGVPDRFTGSGYGTDFTFTINTVQAEDLAVYFCQQDYSSPYTFGGGTKLEIKR
notes: also called xi7D1
B7: Chimeric 17E2 (antibody, human IgG2, kappa, V domains shown)
VH: QVQLQQSGAELVRPGASVTLSCKASGYTFTDYEMHWVKQTPVLGLEWIGAIDPETGDTAYNQKFKGKATLTADKSSSTAYMELSSLASEDSAVYYCIRVDSNYDYFDYWGQDTTLTVSS
VL: DIVLTQSPPILSASPGEKVTMTCRASSSVSYMHWYQQKPGSSPKPWIYDTSNLASGVPARFSGSGSGTSYSLTISRVEAEDAATYYCQQWSSNPLTFGAGTKLELKR
notes: also called xi17E2

The target of one test is T1, recombinant protein containing hST2 …. The test is described as follows: SPR (Biacore T200), hST2-ECD-mFc captured by anti-mouse IgG on CM5, antibody as analyte, 1:1 model. On the procedure: The reaction signals were detected in real time using a Biacore instrument (Cytiva, BiacoreT200), and then an association-dissociation curve was obtained. After the completion of dissociation in each cycle, the biochip was regenerated with a regeneration solution for the next capture; the procedure was repeated until the affinity of the different antibodies for ST2 was determined. The acquired data were finally analyzed using the GE BIAevaluation software with a 1:1 (Langmuir) binding model to determine the association rate constants ka (kon) and the dissociation rate constants kd (koff), and the dissociation constants KD were given by KD = kd/ka. The determined affinity of the anti-ST2 antibody for human ST2 antigen (hST2-ECD-mFc), cynomolgus monkey ST2 antigen (Cyno-ST2-his, Sino biological, 90915-C08H) and the determined affinity of the anti-ST2 chimeric antibodies for ST2 were shown in Table 5.
(Surface plasmon resonance follows binding to a sensor surface in real time, without labels.)
On to B1, for which the Kd is 0.0686 nM.

Take B2: the equilibrium dissociation constant (Kd) turned out to be 0.0177 nM.

Regarding B3, the dissociation constant (Kd) was 0.0872 nM.

B4: the dissociation constant (Kd) came out at 0.0299 nM.

Regarding B5, the Kd is 0.0933 nM.

As for B6, the Kd was found to be 0.145 nM.

Take B7: the Kd turned out to be 0.0541 nM.

The next test addresses T2, human ST2 (hST2, Interleukin-1 …). The test is described as follows: flow cytometry on HEK293T-hST2-NFκB-Luciferase cells. As to the method:
The binding capacity of the anti-ST2 antibodies to hST2-overexpressing cell lines and cyno-ST2-overexpressing cell lines was analyzed using an FACS-based method through binding assays with the hST2 (SEQ ID NO:1)-overexpressing HEK293T cell line (HEK293T-hST2-NFκB-Luciferase) and the cynomolgus monkey ST2 (SEQ ID NO: 10)-overexpressing HEK293T cell line (HEK293T-Cyno-ST2-NFKB-Luciferase). HEK293 cells were transfected with the pLenti6.3- hST2 plasmid and the pLenti6.3-NFκB-luciferasae plasmid using a lentiviral transfection system to construct the cell line HEK293T-hST2-NFκB-Luciferase. HEK293T cells were transfected with the pLenti6.3-cynoST2 plasmid and the pLenti6.3-NFκB-luciferasae plasmid to construct the cell line HEK293T-Cyno-ST2-NFκB-Luciferase.
3 × 10⁵ HEK293T-hST2-NFκB-Luciferase or HEK293T-Cyno-ST2-NFκB-Luciferase cells were added to a 96-well culture plate. Serially diluted anti-ST2 antibodies (serially diluted 4-fold from an initial concentration of 667 nM to 8 concentrations in binding assays with the HEK293T-hST2-NFκB-Luciferase cells; serially diluted 4-fold from an initial concentration of 400 nM to 8 concentrations in binding assays with the HEK293T-Cyno-ST2-NFκB-Luciferase cells) were added to the cell suspensions. After the plate was incubated at room temperature for 60 min, the cells were washed 3 times with PBS. […] The cells were washed 3 times with PBS and resuspended in 100 µ1L of PBS, and then the fluorescence signals were analyzed and detected using a flow cytometer (BD, Accuri C6). The binding capacity of the anti-ST2 antibodies to hST2 and cyno-ST2 on the cell line surfaces was measured in terms of the mean fluorescence intensity (MFI) of staining. The data were analyzed using GraphPad Prism5, and the EC₅₀ values were calculated. The EC₅₀ values for the binding of the anti-ST2 chimeric antibodies to hST2 and Cyno-ST2 at the cellular level are shown in Table 8 and FIGS. 7-8.
Background: Flow cytometry measures light scatter and fluorescence of single cells or particles in a stream.
The molecule B1 gave an EC50 of 0.589 nM.

For B2, the half-maximal effective concentration (EC50) was determined as 0.298 nM.

With B3, the concentration for a half-maximal effect (EC50) was determined as 0.349 nM.

Molecule B5 yielded an EC50 of 0.343 nM.

Turning to B6, it took 0.265 nM to reach a half-maximal effect (EC50).

Regarding B7, the half-maximal effective concentration (EC50) was 0.224 nM.

One may read the Kd as the free concentration of one partner at which half of the binding sites on the other are occupied at equilibrium, for simple one-to-one binding. In general, EC50 refers to the concentration needed to bring the measured effect to its halfway point.
